The supplement of paper PMC11780869

These sequences were tested on Bacillus subtilis (assay: cleaved RNA product abundance (RNA/gDNA barcode ratio) relative to median wild-type variant (ratio to wild type); higher = more accumulation of the downstream cleavage product). Conditions: experiment (reporter, strain, medium): exp 2b: truncated aprE reporter, strain BJT200; cleavage site: cggR-gapA (positions -7 to +36 mutated).
In short: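 Cleaved product abundance is expressed as the RNA:gDNA barcode ratio per construct, scaled to the median construct carrying the unmutated site. The constructs were barcoded, mutagenized RNase Y cleavage-site windows in truncated aprE or tetM reporter mRNAs integrated into the B. subtilis chromosome. Cultures grew in LB at 37°C from OD600 0.0003 to 0.3 before cleaved RNA was gel-selected and barcode-sequenced.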

Sequence | cleaved RNA product abundance
ACAGACGAAGGAGCCGCAAAGAAGTTATTAATGGATGAATAATCCCTCAAAATAAATATCTCTCACTTATTTAAA | 0.11
ACAGACGAAGGAGCCGCAAAGAAGTTATTAAGAGATGCATAATCCCTCAATATAAATATCTCTCACTTATTTAAA | 0.117
ACAGACGAAGGAGCCGCAAAGAAGTTATTAAGGGATGAATAATCCCACAATATAAATATCTCTCACTTATTTAAA | 0.204
ACAGACGAAGGAGCCGCAAAGAAGTTAATAAGGGATGAATAATCCGTCAATATAAATATCTCTCACTTATTTAAA | 0.177
ACAGACGAAGGAGCCGCAAAGAAGTTATTAAGGGATGAAAAACCCCTCAATATAAATATCTCTCACTTATTTAAA | 0.477

Same assay, conditions: experiment (reporter, strain, medium): exp 4a: truncated aprE reporter, strain BJT201 with 2% xylose (RNase J1 expressed); cleavage site: cggR-gapA (positions -7 to +36 mutated)

Sequence | cleaved RNA product abundance
ACAGACGAAGGAGCCGCAAAGAAGTTATTAAGGGATGAATAATCCCAGAATATAAATATCTCTCACTTATTTAAA | 0.361
ACAGACGAAGGAGCCGCAAAGAAGTTATTAATGGATGAATAATCCCTCAAAATAAATATCTCTCACTTATTTAAA | 0.151
ACAGACGAAGGAGCCGCAATGAAGTTATTAAGGGATGAATGATCCCTCAATATAAATATCTCTCACTTATTTAAA | 0.506
ACAGACGAAGGAGCCGCAAAGAAGTTATTAAGAGATGCATAATCCCTCAATATAAATATCTCTCACTTATTTAAA | 0.158
ACAGACGAAGGAGCCGCAAAGAAGTTATTAAGGGATGAATAATCCCACAATATAAATATCTCTCACTTATTTAAA | 0.279
ACAGACGAAGGAGCCGCAAATAAATAATTAAGGGATGAATAATCCCTCAATATAAATATCTCTCACTTATTTAAA | 0.336
ACAGACGAAGGAGCCGCAAAGAAGTTATTAAGGGATGAATATCCCCTCAATATAAATATCTCTCACTTATTTAAA | 0.455
ACAGACGAAGGAGCCGCAAAGAAGATATTAAGGGATGAATAATCCCTCAATATAAAAATCTCTCACTTATTTAAA | 0.576
ACAGACGAAGGAGCCGCAAAGAAGTTATTAAGGAGTGAATAATCCCTCAATATAAATATCTCTCACTTATTTAAA | 0.171
ACAGACGAAGGAGCCGCACAGAAGTTACTAAGGGATGAATAATCCCTCAATATAAATATCTCTCACTTATTTAAA | 0.22
ACAGACGAAGGAGCCGCAAAGAATATATTAAGGGATGAATAATCCCTCAATATAAATATCTCTCACTTATTTAAA | 0.375
ACAGACGAAGGAGCCGCAAAGAAGTTATTAAGGGATGAAAAACCCCTCAATATAAATATCTCTCACTTATTTAAA | 0.485
ACAGACGAAGGAGCCGCAAAGACGTTATTAAGGAATGAATAATCCCTCAATATAAATATCTCTCACTTATTTAAA | 0.14
ACAGACGAAGGAGCCGCATAGAAGTTTTTAAGGGATGAATAATCCCTCAATATAAATATCTCTCACTTATTTAAA | 0.561
ACAGACGAAGGAGCCGCAAAGAAATTATTAAGGGATGAATGATCCCTCAATATAAATATCTCTCACTTATTTAAA | 0.661

Same assay, conditions: experiment (reporter, strain, medium): exp 6: tetM reporter, strain 168; cleavage site: cggR-gapA (positions -7 to +36 mutated)

Sequence | cleaved RNA product abundance
ACAGACGAAGGAGCCGCAAAGAAGTTATTAAGGGATGAATAATCCCACAATATAAATATCTCTCACTTATTTAAA | 0.271

Same assay, conditions: experiment (reporter, strain, medium): exp 8a: truncated aprE reporter, strain BJT201 with 2% xylose (RNase J1 expressed); cleavage site: glnRA (positions -5 to +31 mutated)

Sequence | cleaved RNA product abundance
CGACATGTCCCGCTTCTTTCATTAAGCCGTTACCAACTGTTTTGCTATATACATTTACCTTTTAAGAGGAGGAAT | 0.21
CGACATGTCCCGCTTCTTTCATTAATACGTTAACAACTGTTTTGCTATATACATTTACCTTTTAAGAGGAGGAAT | 0.195
CGACATGTCCCGCTTCTTTCATTATTCCGTTAACAACAGTTTTGCTATATACATTTACCTTTTAAGAGGAGGAAT | 0.271
CGACATGTCCCGCTTCTTTCATTATTCCGTTAGCCACTGTTTTGCTATATACATTTACCTTTTAAGAGGAGGAAT | 0.595
CGACATGTCCCGCTTCTTTCATTAATACGTTACCAACTGTTTTGCTATATACATTTACCTTTTAAGAGGAGGAAT | 0.215
CGACATGTCCCGCTTCTTTCATTATTCCGTTAGCAACTGTTTTGCTATATACATTAACCTTTTAAGAGGAGGAAT | 1.44
CGACATGTCCCGCTTCTTTCATTAATCCGTAAGCAACTGATTTGCTATATACATTTACCTTTTAAGAGGAGGAAT | 0.25
CGACATGTCCCGCTTCTTTCATTAATCCGTAAGCAACTGTTTTGCTATATAAATTTACCTTTTAAGAGGAGGAAT | 0.474
CGACATGTCCCGCTTCTTTCATTAATCCATTAGCAACTGTTTTGCTATATACATTTACCTTTTAAGAGGAGGAAT | 0.857
CGACATGTCCCGCTTCTTTCATTAATCCGTTAGTAACTGTTTTGCTAAATACATTTACCTTTTAAGAGGAGGAAT | 0.496
